Measured values taken from patent publication US20220017630A1 (JIANGSU SIMCERE PHARMACEUTICAL, published 2022).

What was measured:
[1] = molecular target: T1, human TNFR2 on the cell surface (CHO-TNFR2 cells; human Treg cells) (human, UniProt P20333 23-461); test: flow cytometry competition on CHO-TNFR2 cells: antibody first, then human TNFα-biotin, PE-streptavidin; MFI of bound TNFα-biotin [label on D00006), panel #125, table under the plot]
T1 construct: whole, on cells; The assay field of each row says which cells; also called TNFR2-CHO cell; TNFR2 on Treg cells
T1 sequence (looked up): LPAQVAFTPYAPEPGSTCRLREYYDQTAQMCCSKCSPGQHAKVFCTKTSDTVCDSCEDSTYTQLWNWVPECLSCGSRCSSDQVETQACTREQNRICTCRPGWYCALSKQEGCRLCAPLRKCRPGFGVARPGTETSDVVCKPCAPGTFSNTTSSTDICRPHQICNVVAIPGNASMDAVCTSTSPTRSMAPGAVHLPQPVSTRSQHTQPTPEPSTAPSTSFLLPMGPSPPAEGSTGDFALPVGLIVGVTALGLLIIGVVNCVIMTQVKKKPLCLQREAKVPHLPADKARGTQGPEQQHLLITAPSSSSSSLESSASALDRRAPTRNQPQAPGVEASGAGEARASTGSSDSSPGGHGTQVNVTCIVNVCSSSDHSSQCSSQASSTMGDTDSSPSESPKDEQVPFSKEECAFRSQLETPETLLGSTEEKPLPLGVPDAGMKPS
Method: (§1) CHO cells that stably overexpressed human TNFR2 were used for experiments. The cells were resuscitated and passaged until in good state, and the expression level of human TNFR2 on the cells was assessed by FACS. Compared to the isotype control, the assay could be carried out when the fold change of mean fluorescence intensity (MFI) was more than 100 times.
(§2) CHO-TNFR2 cells were digested, washed twice with DPBS and stained with Live/Dead (L/D) at room temperature for 20 min, and then seeded at 1×10⁵ cells/50 μl/well. […] The diluted antibodies were added 50 μl/well into wells pre-seeded with cells, and gently blown and mixed to make the final concentrations of the antibodies to 20, 6.67, 2.22, 0.74, 0.247, 0.08, 0.027 and 0 nM, respectively followed by incubation at 4° C. for 30 min. […] After washing twice with the staining buffer, 100 μl/well of PE-streptavidin was added and incubated at 4° C. for 30 min. After additional washing with the staining buffer twice, 150 μl resuspended cells was analyzed using an flow cytometry. Taking the logarithmic value of the antibody concentrations as abscissa and the corresponding MFI value as ordinate, the inhibition curve of the antibody was drawn, and the IC50 value was calculated by four parameters fitting.

[2] = molecular target: T1, human TNFR2 on the cell surface …; test: flow cytometry competition on CHO-TNFR2 cells: antibody first, then human TNFα-biotin, PE-streptavidin; MFI of bound TNFα-biotin [label on D00006), panel #001, table under the plot]
Method: as §1, §2

[3] = molecular target: T1, human TNFR2 on the cell surface …; test: flow cytometry competition on CHO-TNFR2 cells: antibody first, then human TNFα-biotin, PE-streptavidin; MFI of bound TNFα-biotin [label on D00006), panel #088, table under the plot]
Method: as §1, §2

[4] = molecular target: T1, human TNFR2 on the cell surface …; test: flow cytometry competition on CHO-TNFR2 cells: antibody first, then human TNFα-biotin, PE-streptavidin; MFI of bound TNFα-biotin [label on D00006), panel #133, table under the plot]
Method: as §1, §2

[5] = molecular target: T1, human TNFR2 on the cell surface …; test: flow cytometry competition on CHO-TNFR2 cells: antibody first, then human TNFα-biotin, PE-streptavidin; MFI of bound TNFα-biotin [panel #226, table under the plot]
Method: as §1, §2

[6] = molecular target: T1, human TNFR2 on the cell surface …; test: flow cytometry competition on CHO-TNFR2 cells: antibody first, then human TNFα-biotin, PE-streptavidin; MFI of bound TNFα-biotin [label on D00006), panel #224 (printed twice, bottom left and bottom right), table under the plot]
Method: as §1, §2

[7] = molecular target: T1, human TNFR2 on the cell surface …; test: flow cytometry competition on CHO-TNFR2 cells: antibody first, then human TNFα-biotin, PE-streptavidin; MFI of bound TNFα-biotin [panel #309, table under the plot]
Method: as §1, §2

[8] = molecular target: T1, human TNFR2 on the cell surface …; test: flow cytometry competition on CHO-TNFR2 cells: antibody first, then human TNFα-biotin, PE-streptavidin; MFI of bound TNFα-biotin [panel #352, table under the plot]
Method: as §1, §2

[9] = molecular target: T1, human TNFR2 on the cell surface …; test: flow cytometry competition on CHO-TNFR2 cells: antibody first, then human TNFα-biotin, PE-streptavidin; MFI of bound TNFα-biotin [panel #365, table under the plot]
Method: as §1, §2

[10] = molecular target: T1, human TNFR2 on the cell surface …; test: flow cytometry competition on CHO-TNFR2 cells: antibody first, then human TNFα-biotin, PE-streptavidin; MFI of bound TNFα-biotin [panel #395, table under the plot]
Method: as §1, §2

B1: TNFR2 antibody #125 (antibody, V domains shown)
VH: EVQLQESGGGLVQPGGSLNLSCAASGFAFSIYDLSWVRQTPEKRLEWVAYINNGGISTYYSDTVKGRFTISRDNAKNTLYLQMSSLKSEDTAMYYCVRGPFYGSANYFDYWGQGTTVTVSS
VL: DIQMTQSPASLSLSVGETVTITCRASENIYSNLAWYQQKQGKSPQLLVYDATKLAEGVPSRFSGSESGTQYSLKINSLQSEDFGTYYCQHFWVTPWTFGGGTKLEIK
IC50 [1]: 0.109 µg/mL

B2: TNFR2 antibody #001 (antibody, V domains shown)
VH: EVQLQESGGGLVQPGGSLNLSCAASGFAFSTYDLSWVRQTPEKRLEWVAYINNGGISTYYSDTVKGRFTISRDNAKNTLYLQMSSLKSEDTAMYYCVRGPFYGSANYFDYWGQGTTVTVSS
VL: EIVMTQSPASLSLSVGETVTITCRTSESIYSNLPWYQQKQGKSPQLLVYDATKLAEGVPSRFSGSESGTQYSLKINSLQSEDFGTYYCQHFWVTPWTFGGGTKLEIK
notes: also called antibody #1
IC50 [2]: 0.14 µg/mL

B3: TNFR2 antibody #088 (antibody, V domains shown)
VH: EVQLQESGGGLVQPGGSLNLSCAASGFAFSTYDLSWVRQTPGKRLEWVAYINNGGISTYYSDTVKGRFTITRDNAKNTLYLQMSSLKSEDTAMYYCVRGPFYGSANYFDYWGQGTTVTVSS
VL: DILMTQSPASLSLFVGETVTITCRASENIYSNLAWYQQKQGKSPQLLVYDATKLAEGVPSRFSGSESGTQYSLKINSLQSEDFGTYYCQHFWVTPWTFGGGTKLEIK
IC50 [3]: 0.185 µg/mL

B4: TNFR2 antibody #133 (antibody, V domains shown)
VH: EVQLQESGAELVRSGASVKLSCTASGFNIKDYYIQWVKQRPEQGLEWIGWIDPESGNTKYAPKFQDKATMTADTSSNTAYLQLSGLTSEDSAVYYCNAYYDYDGSMDYWGQGTTVTVSS
VL: DIVMTQSPLSLPVSLGDQASISCRSSQSLVHSNGNTYLHWYLQKPGQSPKLLIYKVSNRFSGVPDRFSGSGSGTDFTLKISRVETDDLGVYFCSQSTHVPTWTFGGGTKLEIK
IC50 [4]: 0.04 µg/mL

B5: TNFR2 antibody #226 (antibody, V domains shown)
VH: EVQLQESGAELVRPGASVKLSCKASGYSFTNYWMNWVKQRPGQGLEWIGMIHPSDSETRLNQKFKDKATLTVDKSSSTAYMQLSSPTSEDSAVYYCARGEGLGAARSVSMDYWGQGTTVTVSS
VL: DIQMTQSPSSLSASLGDRVTISCRASQDISNYLNWYQQKPDGTVKVLIYYTALLHSGVPSRFSGSGSGTDYSLTISNLEQEDIATYFCQQGNTLPWTFGGGTKLEIK
IC50 [5]: 0.06 µg/mL

B6: TNFR2 antibody #224 (antibody, V domains shown)
VH: EVQLQESGPEIVKPGASVKLSCTASGFNNKDIYMHWVKQRPEQGLEWIGRIDPATGNTKHDPKFQDKATLSSDTSSNTAYLQFSSLTSEDTAVYYCAHSPYGDFGAMDYWGQGTTVTVSS
VL: DIQMTQSPAIMSASLGERVTMTCTASSSVSSNYLHWYQQKPGSSPKLWIYSTSNLPSGVPARFSGSGSGTSYSLTISSMEAEDAATYYCHQYHRSPWTFGGGTKLEIK
IC50 [6]: 0.128 µg/mL

B7: TNFR2 antibody #309 (antibody, V domains shown)
VH: EVQLQESGAELVKPGASVKLSCKASGYTFTSYWIHWVKLRPGQGFEWIGEINPNNGGTDYNEKFKRKATLTVDKSSSTAYMELSSLTSEDSAIYYCTIDSMITTTWFAYWGQGTTVTVSS
VL: EIVMTQSQKLMSTVVGDRVSVTCKASQNVGTNVAWFQQKPGQSPKALINSASYRYSGVPDRFTGSGSGTDFTLTISSVQSEDLAEYFCQQYNSYPFTFGSGTKLEIK
IC50 [7]: 0.116 µg/mL

B8: TNFR2 antibody #352 (antibody, V domains shown)
VH: EVQLQESGPGLVAPSQSLSITCTVSGFSLTSYGVHWVRQPPGKGLEWLVVIWSDGGTTYNSALKSRLSISKDNSKSQVFLKMNSLQTDDTAMYYCARHDDDGYYAMDYWGQGTTVTVSS
VL: DIVLTQSPSLMSASPGEKVTMTCSASSSVGYMYWYQQKPRSSPKPWIYLTSNLASGVPARFSGSGSGTSYSLTISSMEVEDAATYYCQQWSSDPFTFGSGTKLEIK
IC50 [8]: 0.056 µg/mL

B9: TNFR2 antibody #365 (antibody, V domains shown)
VH: EVQLQESGPGLVQPSQSLSITCTVSGFSLTSYGVHWVRQSPGKGLEWLGLIWSDGSPDYSAAFISRLSINKDNSKSQVFFKMNSLQADDTAIYYCARNDDGGDYVMDYWGQGTTVTVSS
VL: EIVLTQSPALMSASPGEKVTMTCSASSSVSYMYWYQQKPRSSPKPWIYLTSNLASGVPARFSGSGSGTSYSLTISSMEAEDAATYYCQQWTSNPLTFGAGTKLEIK
IC50 [9]: 0.041 µg/mL

B10: TNFR2 antibody #395 (antibody, V domains shown)
VH: EVQLQESGPVLVQPSQSLSITCTVSGFSLTSYSVHWVRQSPGKGLEWLGVIWSDGGTDYSAAFISRLSISKDNSKSQVFFKMNSLQADDTAIYYCARNDDGGDYAMDYWGQGTTVTVSS
VL: EIVLTQSPALMSASPGEKVTMTCSASSSVSYMYWYQQKPRSSPKPWIYLTSNLASGVPARFSGSGSGTSYSLTISSMEAEDAATYYCQQWSSNPLTFGAGTKLEIK
IC50 [10]: 0.021 µg/mL
